Here are results for 41 sequences from the nanobody polyreactivity screen of Harvey et al. (2022).

The series can be described thus: yeast display, Sf9 membrane polyspecificity reagent, FACS + sequencing; frameworks hold sequencing errors. In a few lines: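 Galactose induction of a Saccharomyces cerevisiae BJ5465 synthetic nanobody display library ran 36–48 hours. The cells were then stained for 1 hour at 4 °C with 10% biotinylated, detergent-solubilized Sf9 membrane reagent, pulled down on streptavidin microbeads and FACS-sorted into low and high (top ~1%) gates on expression and reagent-binding fluorescence. Labels for polyreactivity follow the gate of origin.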
On to “QVQLVESGGGLVQAGGSLRFSCAASGLIFRGYTMGWYRQAPGKEREFVAAITRRGTSTYYADSVKGRFTISRDNAKNTVYLQINRLKPEDTAVYYCAARSVSGPRGYPYDYWGQGTQVTVSS”, for which the “polyreactivity (PSR sort gate)” value is given as “high polyreactivity”.
Take “QVQLVESGGGLVQAGGSLRFSCAASGPIFYNNAMGGYRQAPGKERELHAAISYSGGRTYYADSVKGRFTISRDNAKNTVYLQMNSLKPEDTAVYYCATRYARTAYIRSEYWGQGTQVTVSS”: the “polyreactivity (PSR sort gate)” value is “high polyreactivity”.
Turning to “QVQLVESGGGLVQAGGSLRFSCAASGRICVIYAIGWYRQAPGKERELVAVINDDGSTNYADSVKGRFTISRDNAKNTVYLQMNSLKPEDTAVYYCATDYVRHAGWRRYDYWGQGTQVTVSS”, the “polyreactivity (PSR sort gate)” value was “low polyreactivity”.
Take “QVQLVESGGGLVQAGGSLRFSCAASGRIFTAYTMGWYRQAPGKERELVAAITRAGRTYYADSVKGRFTISRDNAKNTVYLQMNSLKPEDTAVYYCNTAPNYKYGYWGQGTQVTVSS”: the “polyreactivity (PSR sort gate)” value is on record as “high polyreactivity”.
The result for “QVQLVESGGGLVQAGGSLRFSCAASGRILFSYGAMGLYRQAPGRERELDAATSYSGGSTYYADSVKGRFTISRDKAKKTVYLQMNSLKPEETAVYYCDPSSIVYRHYYWGQGTQVTLSS” reads “high polyreactivity”.
For the sequence “QVQLVESGGGLVQAGGSLRFSCAASGRTFTVYAMGWYRQAPGKERELVAAINYSVGSTYYADSVKGRFTISRDNAKNTVYLQMNSLKPEDTAVYYCAADLYHFSYSYSYIRYDYWGQGTQVTVSS”, the “polyreactivity (PSR sort gate)” value is “low polyreactivity”.
To “QVQLVESGGGLVQAGGSLRFSCAASGRTFVWYTMGWYRQAPGKERELVAAISSGGSTSYADSVKGRFTISRDNAKNTVYLQMNSLKPEDTAVYYCNAVWYVRYSGMDYWGQGTQVTVSS” belongs “high polyreactivity”.
The result for “QVQLVESGGGLVQAGGSLRFSCAASGRTFYFYAMGWYRQAPGKERELVAAIRSSGGSTNYADSVKGRFTISRDNAKNTVYLQMNSLKPEDTAVYYCAAKRRAKGNYAFYYWGQGTQVTVSS” reads “high polyreactivity”; that for “QVQLVESGGGLVQAGGSLRFSCAASGRTLGYYTMGWYRQAPGKESELVATITPGGSTNYADSVKGRFTISRDHAKNTVYLQMNRLKPEDTAVYYCAKKKRRGYGYDYWGQGTQVTVSS”, “high polyreactivity”; that for “QVQLVESGGGLVQAGGSLRFSCAASGSIFQHYAMGWYRQAPGKERELVAAISWSGGSTYYADSVKGRFSISRDNAKNTVYLQMNSLKPEDTAVYYCAATKRRFVKFDYWGQGTQVTVSS”, “low polyreactivity”.
On to “QVQLVESGGGLVQAGGSLRFSCAASGSIFRVNAMGWYRQAPGKERELVAAITDGGITNYADSVKGRFTISRDNAKNTVYLQMNSLKPEDTAVYYCAADTDRDFHYVVPTYDYWGQGTQVTVSS”, for which the “polyreactivity (PSR sort gate)” value was “low polyreactivity”.
The result for “QVQLVESGGGLVQAGGSLRFSCAASGSIFSLNTMGWYRQAHGKERELVAAITRGGSTYYADSVKGRFTISRDNAKNTVYLQMNSLKPEDTAVYYCAAVPGGNISAPYDYWGQGTQVTVSS” reads “high polyreactivity”; that for “QVQLVESGGGLVQAGGSLRFSCAASGSIIFDGNAMAWSRQAPGKEREMVADITTSDGRTYYADSVKGRFTISRDSAKNTVYFQMNSLKPEDTAVYDCAKPNGYHGGRYDYWGQGSQVTVSS”, “low polyreactivity”; that for “QVQLVESGGGLVQAGGSLRFSCAASGSTFLSNAIGWYRLAPGKERELVAAISIGGGRTYYADSVKGRFTISRDNAKNTVYLQMNSLKPEYTAVYYCNAVGRHTDAYHYDYWGQGTQVTVSS”, “high polyreactivity”.
With “QVQLVESGGGLVQAGGSLRFSCAASGSTFRDYAMGWYRQAPGKERELVAAISSRGATTYYADSVKGRFTISRDNAKNTVYLQMNSLKPEDTAVYYCNARQRRNPGGYGYWGQGTQVTVSS”, the “polyreactivity (PSR sort gate)” value is listed as “high polyreactivity”.
To “QVQLVESGGGLVQAGGSLRFSCAASGSTFSYYTMGWYRQAPGKERELVATISRRGASTYYADSVKGRFTISRDNAKNTVYLQMNSLKPEDTAVYYCAKSYYYGRSATRPEYDYWGQGTQVTVSS” belongs “high polyreactivity”.
With “QVQLVESGGGLVQAGGSLRFSCAASGSTFYGYVMGWYRQAPGKERELVAAISSSGGRTYYADSVKGRFTIARDYAKNTVYLQMNSLKPEDTAVYYCNTVQRYSTHYDYWGQGTQVTVSS”, the “polyreactivity (PSR sort gate)” value is given as “high polyreactivity”.
To “QVQLVESGGGLVQAGGSLRFSCAASGTFVPYAMGWYRQAPGKEMELVARITWRGGSTYYADSVKGRFTISRDNAKNTVYLQMNSLKPEDTAVYYCATVSDNRYYYWGQGSQVTVSS” belongs “low polyreactivity”; to “QVQLVESGGGLVQAGGSLRFSCADSGSTFGTYAMGWYRQAPGKERELVAAISWSGGSTYYADSVKGRFTISRDNAKNTVYLQMNSLKPEDTAVYWGQGTQVTVSS”, “low polyreactivity”.
The result for “QVQLVESGGGLVQAGGSLRFSCGGWGSISEVYAMGWYRPAPGKERELVAAITSGASTNYADSVNGRFTISRDNAKNTVYLQMNSLKPEDTAVYYCAADSDSQWGMDYWGQGTQVTVSS” reads “low polyreactivity”; that for “QVQLVESGGGLVQAGGSLRIICAASGRTFATYAMGWYRQAPGKERELVAVISRSGGRTYYADSVKGRFTISRDNAKNTVYLQMNSLKPEDTAVYYCAASYGPSTWTSSYYYWGQGTQVTVSS”, “high polyreactivity”; that for “QVQLVESGGGLVQAGGSLRIICAASGSIFPYYAKGWYRQAPGKERELVARITITGGITYYADSVKGRFSISRDNAKNTVYLQMHSLKPEDTAVYYCAADRDWQYSFRHSVYVYDYDFWGQGTQVTVSS”, “low polyreactivity”.
To “QVQLVESGGGLVQAGGSLRISCAASARIFQVYGMGWYRQAPGKERELVASITYRGGSTYYADSVKGRFTISRDNAKNNVDLQMNSLKPEDTAVYYCAADGAFYASTEMDYWGQGTQVTVSS” belongs “low polyreactivity”; to “QVQLVESGGGLVQAGGSLRISCAASGFIFGWYAMGWYRQAPGKERELVAVIRSGGRTNYADSVKGRFTISRDNAKNTVYLQMNSLKPEDTAVYYCNAVGGRGYGGGYWGQGTQVTVSS”, “high polyreactivity”; to “QVQLVESGGGLVQAGGSLRISCAASGFIFHVYAMGWYRQAPGKERELVAAISSGGSTYYADSVKGRFTISRDNAKNTVYLQMNSLKPEDTAVYYCNVARSRYRYRYDYWGQGTQVTVSS”, “high polyreactivity”.
Take “QVQLVESGGGLVQAGGSLRISCAASGFIFKKNAMGWYRQAPGKERELVAAITSSGGSTYYADSVKGRFTISRDNAKNTVYFQMNSLKPEDSAVYYCARDKEQQGYRLFGYWGQGTQVTVSS”: the “polyreactivity (PSR sort gate)” value is “high polyreactivity”.
The result for “QVQLVESGGGLVQAGGSLRISCAASGFIFPYNSMGWYREAPGKERELVARISSGGSTNYADSVKGRFTISRDNAKNTVYLQMHSLKPEDTAVYYCNARYRWGWTYLRYGSYDYWGQGTQVTVSS” reads “high polyreactivity”; that for “QVQLVESGGGLVQAGGSLRISCAASGFIFQYNTMGWYRQAPGKERELVAVITRTGSTNYADSVKGRFTISRDNAKNTVYLQMNSLKPEDTAVYFCATSFYSRPRKARYYYWGQGTQVTVSS”, “high polyreactivity”.
As to “QVQLVESGGGLVQAGGSLRISCAASGFIFSRNAMGWYRQAPGKERELVAAISAGGGSTYYADSVKGRFTISRDNAKNTVYLQMNSLKPEDSAVYSCAAYFRSQFGYWGQGTQVTVSS”, the “polyreactivity (PSR sort gate)” value is recorded as “high polyreactivity”.
Turning to “QVQLVESGGGLVQAGGSLRISCAASGFIFVRYAMGWYRQAPGKEREFVAVISRRGGSTHYADSVKGRFTISRDNAKNTVYLQMNSLKPEDTAVYYCAAVRRVYSQNDYWGQGSQVTVSS”, the “polyreactivity (PSR sort gate)” value is reported as “high polyreactivity”.
With “QVQLVESGGGLVQAGGSLRISCAASGFILYYYAMGWYRQAPGKERELVAAISRNGGRTYYAVSVKGRFTISRDNAKNTVYLQMNSLKPEDTAVYYCNKGVSRTLSSAYDYWGQVTQVTVSS”, the “polyreactivity (PSR sort gate)” value is “high polyreactivity”.
As for “QVQLVESGGGLVQAGGSLRISCAASGFISYYYAMGWYRQAPGKERELVAAITKSGGSTYYADSVKGRFTISRDNAKNTVYLQMNSLKPDDTAVYYCAADRSTRNSTSRLYGYWGQGTQVTVSS”, the “polyreactivity (PSR sort gate)” value is given as “low polyreactivity”.
To “QVQLVESGGGLVQAGGSLRISCAASGFSFRYYAMGWYRQAPGKERELVAAISGSGGSTYYADSVKGRFTISRDNAKNTVYLQMNSLKPEDTAVYYCARYYTYREYDYWGQATQVTVSS” belongs “high polyreactivity”.
To “QVQLVESGGGLVQAGGSLRISCAASGFTFPYYAMGWYRQAPGKERELVAAISYNGGSTYYADSVKGRFTISRDNAKNTVYLQMNSLKPEDTAVYYCNAVYYDSGVVGYYYWGQGTQVTVSS” belongs “high polyreactivity”.
The result for “QVQLVESGGGLVQAGGSLRISCAASGFTFRKYTMGWYRQAPGKERELVAAISRRGGSTYYADSVKGRFTISRDNAKNTVYFQMNSLKPEVTAVYYCATDHIPSVGVDYWGQGTQVTVSS” reads “high polyreactivity”; that for “QVQLVESGGGLVQAGGSLRISCAASGFTFRYYALGWYRQAPGKERELVAAILSSGGSTYYADSVKGRFTISRDNAKNTVYLQINSLKPVDTAVYYCNKVWDRRYDYWGQGTQVTVSS”, “high polyreactivity”.
Consider “QVQLVESGGGLVQAGGSLRISCAASGFTFRYYAMGWYRQAPGKERELVATISTGSGVSTYYADSVKGRFTISRDNAKNTVYLQMNSLKPEDTAVYYCAADYDSYYAYRTPYGYWGQGTQVTVSS”, for which the “polyreactivity (PSR sort gate)” value is “low polyreactivity”.
In the case of “QVQLVESGGGLVQAGGSLRISCAASGFTFWRYALGWYRQAPGKERELVAAISTGGSTNYADSVKGRFTISRDNAKNTVYLQMNSLKPEDTAVYYCNRQWNFTPYRRNYWGQGTQVTVSS”, the “polyreactivity (PSR sort gate)” value is on record as “high polyreactivity”.
To “QVQLVESGGGLVQAGGSLRISCAASGFTFYRYAMGWYRPAPGKERELVASIRRSDGSTSYADSVKGRFTISRDNAKNTFYLQMNSLKPEDTAVYYCAARYAGSSRYDYWGQGTQVTVSS” belongs “high polyreactivity”.
To “QVQLVESGGGLVQAGGSLRISCAASGFTFYYNAMGCYRQAPVKERELVAIRFRGGNTYYAYSVKGRFTISRDNAKITVYLQMNSLKPEDTAVYYCTADDRGSTYVYFDYWGQGTQVTVSS” belongs “low polyreactivity”; to “QVQLVESGGGLVQAGGSLRISCAASGGTFHRYAMGWYRQAPGKERELVAAISGSGASTYYADSVKGRFTISRDNAKNTVYLQMNSLKPEDTAVYYCNAYYYPYWYRYYYWGQGTQVTVSS”, “high polyreactivity”.
